In article PMC7111720:
Like-named read-outs stand apart in the source and are kept apart here.

T1: p22 (Tomato chlorosis virus (isolate AT80/99), UniProt Q001T4 1-193)
T1 sequence: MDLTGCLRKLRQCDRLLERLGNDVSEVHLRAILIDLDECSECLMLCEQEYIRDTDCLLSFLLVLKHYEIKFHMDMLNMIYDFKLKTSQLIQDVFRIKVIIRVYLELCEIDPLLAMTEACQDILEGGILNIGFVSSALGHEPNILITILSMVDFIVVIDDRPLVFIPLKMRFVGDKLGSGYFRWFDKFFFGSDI


Legend:
[1] = biological target: T1, p22; assay: EMSA
[2] = biological target: T1, p22; assay: EMSA; remark: listed apart in the source

Binder | binding result [1] | binding result [2]
21 nt small dsRNA, DIG (dsRNA, 3'-DIG on antisense strand) RNA 1: ACUGGAGUUGUCCCAAUUCUU RNA 2: GAAUUGGGACAACUCCAGUGA | no binding | –
21 nt small dsRNA, free 3' OH (dsRNA) RNA 1: ACUGGAGUUGUCCCAAUUCUU RNA 2: GAAUUGGGACAACUCCAGUGA | – | no binding
